Assay results as given in paper PMC7948467, “Discovery of an ultraspecific triuret hydrolase (TrtA) establishes the triuret biodegradation pathway” (The Journal of Biological Chemistry, 2020).

Legend:
NC(=O)NC(=O)NC(N)=O = tested on: T1, NC(=O)NC(=O)NC(N)=O; experiment: ammonia release, Berthelot assay; format: biochemical, Rhodococcus sp. Mel; settings: phosphate buffer, pH optimum, 25 °C, saturation not achieved
T1 construct: recombinant

NC(=O)NC(N)=O = tested on: T2, NC(=O)NC(N)=O; experiment: ammonia release, Berthelot assay; format: biochemical, Rhodococcus sp. Mel; settings: phosphate buffer, pH optimum, 25 °C
T2 construct: recombinant

[1] = target: Triuret hydrolase (TrtA) from Herbaspirillum sp. BH-1, wild type, His-tag cleaved (Herbaspirillum sp. BH-1); experiment: SEC; HiLoad 16/600 Superdex 200 pg, 50 mM Tris, 200 mM sodium chloride, pH 8, 1 ml/min; His-tag cleaved TrtA

RhdBiuH (Rhodococcus sp. Mel), sequence (chain, as listed by the source): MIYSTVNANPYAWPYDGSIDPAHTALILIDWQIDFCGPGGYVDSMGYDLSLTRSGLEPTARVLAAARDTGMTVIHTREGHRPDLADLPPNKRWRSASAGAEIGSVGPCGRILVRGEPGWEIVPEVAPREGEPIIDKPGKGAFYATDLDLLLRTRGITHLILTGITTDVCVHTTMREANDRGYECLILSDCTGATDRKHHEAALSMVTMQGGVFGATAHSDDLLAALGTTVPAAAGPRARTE

Substance	kcat (NC(=O)NC(=O)NC(N)=O) [s⁻¹]	kcat/Km (NC(=O)NC(=O)NC(N)=O) [M⁻¹ s⁻¹]	Km (NC(=O)NC(N)=O) [µM]	stoichiometry N [1]
RhdBiuH (Rhodococcus sp. Mel)	0.14	170 ± 40	95 ± 26	–
Triuret hydrolase (TrtA) from Herbaspirillum sp. BH-1, wild type, His-tag cleaved (from UniProt A0A2N6JFX7 1-220) (enzyme)	–	–	–	2
